Results reported in patent US5811391A, “Cyclic CS-1 peptidomimetics, compositions and methods of using same” (Cytel Corporation, priority 1995, dated 1998).
Positions of bridges follow the written chain, without caps; N, C: chain ends. Residues, ends and D or L forms follow the SMILES beside them.

Columns and labels:
[1] = molecular target: T1, VLA-4/sVCAM-1 (Homo sapiens, UniProt P05556+P13612); assay: In vitro binding assay: Jurkat cells to solid phase-bound sVCAM-1; format: cell-based
T1 construct: host or cells: Jurkat cells carry the VLA-4; The sVCAM-1 partner was made in house in transfected human embryonal kidney 293 cells (ATCC CRL 1573)
Experimental: Assays conducted using sVCAM-1 as solid phase-bound antigen were carried out substantially identically to those using CS-1. The sVCAM-1 polypeptide used had the same amino acid residue sequence as the materials described in Lobb et al., Biochem. Biophys. Res. Commun., 178:1498-1504 (1991) and Cybulsky et al., Proc. Natl. Acad. Sci., USA, 88:7859-7863 (1991). Human embryonal kidney line 293 (ATCC CRL 1573) cells were co-transfected with a plasmid (pCDNAI;invitrogen) containing the sVCAM-1 DNA sequence and plasmid pSV2-neo [Southern et al., J. Mol. Appl. Gen., 1:327-341 ([…])]. Cells were selected in DMEM, 10 percent fetal bovine serum and 600 μg/ml Geneticin. sVCAM-1 was purified from supernatants using a column containing monoclonal antibody P3H12 (anti-human VCAM-1) coupled to Sepharose 4B. The sVCAM-1 was eluted using 0.1M glycine at pH 2.5 following 50 column washes with PBS, pH 7.2. The eluate was immediately neutralized and dialyzed against PBS for use.

[2] = molecular target: VLA-4 (Homo sapiens, UniProt P05556+P13612); assay: In vitro binding assay: 51Cr-labeled Jurkat cells to solid phase-bound CS-1 peptide (SEQ ID NO:5); format: cell-based; set-up: inflammatory cells that contain the VLA-4 receptor [Jurkat cells; host or cells: Jurkat cells (human T lymphoblastic line); details: for Relative Potency: Table 1, normalized IC50 potency relative to standard peptide SEQ ID NO:6 (=1), Jurkat cells, CS-1
Experimental: Binding inhibition is measured here as a concentration of peptide that inhibits one-half the binding between a standard number of Jurkat cells and a standard amount of CS-1 peptide bound to the surface of a microtiter plate well. Those concentrations are conveniently expressed as IC50 values, smaller numbers indicating a lower concentration required to inhibit 50 percent binding and therefore greater potency. Further specifics of this assay are provided hereinafter.
Jurkat cells (ATCC TIB 152), a human T lymphoblastic line, labeled with ^51 chromium were used to assay in vitro binding inhibition provided by various peptides discussed herein.
The plates were prepared as follows: The 25-mer CS-1 peptide (SEQ ID NO:5) dissolved at 0.5-1 μg/ml in a buffer of 0.1M NaHCO3 at pH 9.5 that also contained 10 μg/ml of bovine serum albumin (BSA) or a conjugate of the CS-1 peptide linked to ovalbumin (CS-1-OVA) dissolved at 1-2.5 μg/ml in the same buffer was used as the substrate. Each well of the microtiter plates was coated with 50 μl of substrate or buffer alone for controls. The wells were permitted to dry out completely and were then rinsed twice with PBS at pH 7.4. Non-specific binding sites of each well were then blocked using 200 μl per well of RPMI/1 percent BSA for two hours at room temperature. Both solid phase-affixed substrates provided similar results.
Jurkat cells (3-5×10^6 cells) were placed into a 15 ml FALCON™ round-bottom tube with a cap. The tube was centrifuged, and the extra medium was then removed.
Two hundred microliters of a ^51 Cr labeling solution were added to the centrifuged cells and maintained in contact with the cells for 90-120 minutes in a warm room. This procedure typically provides about 50,000-100,000 cpm/well with about 80-100 percent cell viability. Longer contact times provide a greater amount of labeling but lower cell viability.
The labeled cells were washed with (i) complete medium, (ii) 1mM EDTA/PBS and then (iii) RPM1/1 percent BSA free of serum components. The cells were centrifuged after each washing. The cells were finally resuspended in serum-free RPMI/1 percent BSA at a concentration of 1×10^6 viable cells/ml, which provides a concentration that is diluted by one-half in the assay.
Cyclic inhibitor peptides were prepared as stock solutions at 20 mg/ml in DMSO in 1.5 ml cryogenic screwcap vials, and were stored at -70° C. Using FLOW™ round-bottom or V-bottom microtiter plates, the inhibitor peptides were prepared at twice the assay concentration in RPMI/1 percent BSA at 60 μl/well.
Four initial dilutions were typically used.
The ^51 Cr-labeled cells (1×10^6 cells at 60 μl/well) were then admixed with the diluted cyclic peptide solutions. The admixtures were maintained at room temperature (about 22° C.) for 30 minutes.
One hundred microliters of each inhibitor peptide/cell admixture were transferred to the substrate-coated wells. This was done in triplicate for each dilution. The resulting plates were incubated for 30 minutes at 37° C. and then washed gently three times with RPMI/1 percent BSA at 200 μl/well. Binding was observed microscopically, particularly after the second wash.
The bound cells were then lysed by the addition of a 0.5 percent solution of sodium dodecylsulfate in water at 100 μl/well. The resulting solutions were then processed for counting and calculation of IC50 values following usual procedures. Appropriate positive and negative controls were used with each plate so that the results of separate assays could be normalized and compared.
The potency data of Table 1 and Table 2 are so normalized. The absolute IC50 value for the peptide of SEQ ID NO:7 is 0.3 μM.

[3] = system: Jurkat cell adhesion to RA synovial sections; details: 10-mer at 500 μg/ml; reported in Elices et al., J. Clin. Invest. 1994; cited from earlier work
[4] = system: porcine peripheral blood lymphocytes / coronary artery endothelial cells and smooth muscle cells; assay: In vitro porcine allograft model: transendothelial lymphocyte migration; format: cell-based; details: 10 μg/ml in the medium, IL-1β-stimulated SMC; present-tense example
Experimental: A similar study is carried out in vitro using porcine coronary artery endothelial cells (EC; as are present in the IEL) and smooth muscle cells (SMC; as are present in the medial layer of the artery). The two cell types are cultured using a membrane transwell system, with the SMC on the bottom layer in M-199 medium (Gibco Labs.). The SMC are stimulated with 100 ng/ml of interleukin-1β (IL-1β) for 24 hours prior to the start of the assay. Porcine peripheral blood lymphocytes are separated by Ficoll-Hypaque, radiolabeled and incubated overnight (about 18 hours) on the EC.

VLA-4, sequence (P13612 34-1032): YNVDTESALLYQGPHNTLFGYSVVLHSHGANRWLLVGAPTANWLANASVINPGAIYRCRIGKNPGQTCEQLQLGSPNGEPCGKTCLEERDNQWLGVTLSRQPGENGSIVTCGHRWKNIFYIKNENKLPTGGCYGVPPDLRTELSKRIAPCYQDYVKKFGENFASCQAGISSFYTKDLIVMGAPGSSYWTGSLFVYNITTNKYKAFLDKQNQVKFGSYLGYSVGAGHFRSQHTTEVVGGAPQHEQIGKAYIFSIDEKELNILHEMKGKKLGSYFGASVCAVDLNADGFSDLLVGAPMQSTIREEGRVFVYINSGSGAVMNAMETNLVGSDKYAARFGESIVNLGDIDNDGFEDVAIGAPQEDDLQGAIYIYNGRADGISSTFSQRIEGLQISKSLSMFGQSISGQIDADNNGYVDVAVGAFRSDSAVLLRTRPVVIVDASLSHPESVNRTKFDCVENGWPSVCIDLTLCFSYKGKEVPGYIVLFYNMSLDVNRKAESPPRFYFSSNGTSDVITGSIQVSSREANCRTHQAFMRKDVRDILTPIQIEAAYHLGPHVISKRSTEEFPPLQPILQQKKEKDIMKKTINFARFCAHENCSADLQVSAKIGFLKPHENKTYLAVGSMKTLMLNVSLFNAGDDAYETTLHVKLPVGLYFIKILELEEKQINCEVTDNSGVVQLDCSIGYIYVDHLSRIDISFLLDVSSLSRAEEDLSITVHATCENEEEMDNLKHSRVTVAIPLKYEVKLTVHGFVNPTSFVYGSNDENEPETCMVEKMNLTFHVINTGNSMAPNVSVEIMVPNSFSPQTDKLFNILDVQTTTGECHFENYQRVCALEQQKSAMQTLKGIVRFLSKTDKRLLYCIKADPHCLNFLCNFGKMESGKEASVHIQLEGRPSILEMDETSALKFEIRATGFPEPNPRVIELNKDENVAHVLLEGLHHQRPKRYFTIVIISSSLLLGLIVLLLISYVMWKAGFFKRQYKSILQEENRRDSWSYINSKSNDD
VLA-4, sequence (P05556 21-798): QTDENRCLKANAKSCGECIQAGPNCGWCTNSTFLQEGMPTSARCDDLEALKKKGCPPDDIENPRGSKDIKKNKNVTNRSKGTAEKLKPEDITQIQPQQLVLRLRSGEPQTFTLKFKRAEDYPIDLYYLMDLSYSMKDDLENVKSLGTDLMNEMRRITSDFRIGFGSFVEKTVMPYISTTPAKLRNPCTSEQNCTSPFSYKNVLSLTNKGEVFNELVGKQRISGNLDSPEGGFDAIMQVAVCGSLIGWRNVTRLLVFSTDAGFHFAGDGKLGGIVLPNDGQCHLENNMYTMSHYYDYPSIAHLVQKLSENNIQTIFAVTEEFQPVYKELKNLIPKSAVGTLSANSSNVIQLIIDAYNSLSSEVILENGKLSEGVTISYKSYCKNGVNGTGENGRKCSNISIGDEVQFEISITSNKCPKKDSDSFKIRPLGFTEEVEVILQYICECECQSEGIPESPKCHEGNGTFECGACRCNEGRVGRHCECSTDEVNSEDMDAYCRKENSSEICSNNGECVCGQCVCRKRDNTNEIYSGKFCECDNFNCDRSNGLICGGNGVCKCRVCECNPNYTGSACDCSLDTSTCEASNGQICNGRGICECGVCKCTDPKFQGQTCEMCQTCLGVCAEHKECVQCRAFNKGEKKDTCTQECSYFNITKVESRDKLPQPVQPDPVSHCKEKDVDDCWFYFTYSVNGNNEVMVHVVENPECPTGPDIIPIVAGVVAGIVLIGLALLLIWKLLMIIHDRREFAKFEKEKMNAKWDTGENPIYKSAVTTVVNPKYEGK
T1 sequence (P13612 34-1032): as the sequence (P13612 34-1032) above
T1 sequence (P05556 21-798): as the sequence (P05556 21-798) above

Compound	inhibition of binding between solid phase-bound sVCAM-1 and Jurkat cells (in words) [1]	Relative Potency [2]	Potency in inhibiting Jurkat cell binding to CS-1 relative to standard 10-mer of SEQ ID NO:6 ([2]; times/fold more potent than SEQ ID NO:6)	inhibition of Jurkat cell adhesion to RA synovial sections [3]	transendothelial lymphocyte migration [4]
GPEILDVPST [SEQ ID NO:6, standard 10-mer peptide GlyProGluIleLeuAspValProSerThr, set atone, reference compound]	no inhibition	1	~1	can be inhibited	–
CC(C)C[C@@H]1NC(=O)[C@H](Cc2ccccc2)NC(=O)[C@@H](N)CSSC[C@@H](C(N)=O)NC(=O)[C@H](CO)NC(=O)[C@@H]2CCCN2C(=O)[C@H](Cc2ccccc2)NC(=O)[C@H](CC(=O)O)NC1=O [SEQ ID NO:13, CFLDFPSC-NH2] (H-CFLDFPSC-NH2; disulfide 1-8)	–	122	–	–	reduces lymphocyte migration
